The values that follow come from the nanobody polyreactivity screen of Harvey et al. (2022).

The nature of this data set: yeast display, Sf9 membrane polyspecificity reagent, FACS + sequencing; frameworks hold sequencing errors. Put shortly: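 Galactose-induced (36–48 hours) yeast carrying a synthetic nanobody display library were exposed to 10% biotinylated, detergent-solubilized Sf9 membrane reagent at 4 °C for 1 hour. FACS followed streptavidin microbead enrichment, using low and high (top ~1%) gates for expression (anti-HA) and reagent binding (streptavidin). Colony PCR, MiSeq 2 × 250 sequencing and CDR-length filtering followed. Labels for polyreactivity reflect the gate of origin.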
Consider “QVQLVESGGGLVQAGGSLRLSCAASGIIFPSYVMGWYRPAPGKERELVARISARGGRTYYADSVKGRFTISRDNAKNTVYLQMNSLKPEDTAVYYCAARWGITTWYDYWGQGTQVTVSS”, for which the “polyreactivity (PSR sort gate)” value is reported as “high polyreactivity”.
The result for “QVQLVESGGGLVQAGGSLRLSCAASGFIIRYYTMGWSRQAPGKERELVAVITSGGTTYYADSVKGRFTISRDNAKNTVYLQMNSLKPEDTAVYYCAADYRPRLDGVGVDYWGQGTQVTVSS” reads “low polyreactivity”; that for “QVQLVESGGGLVQAGGILRLSCAASGSTLGKNAMGWYRQAPGKERELVAAISYSGGSTYYADSVKGRFTISRDNAKNTVYLQMNSLKPEDTAVYYCAAQRRYHYWGQGTQVTVSS”, “low polyreactivity”; that for “QVQLVESGGGLVQAGGSLRLSCAASGFTFTSYAMGWYRQAPGKERELVAAITVTGGRTYYADSVKGRFTISRDNAKNTVYLQMNSLKPEDTAVYYCATVFSLSSPYWKHYYWGQGTQVTVSS”, “high polyreactivity”.
The result for “QVQLQESGGGLVQAGGSLRQSCAASGSNSPWSYMGRSRQAPGKEREFVASINAGTNTYYADSAKGRITISRDNATNTVYLQMNSLKPEDTAAYYCAARYWNDYYFPYWGQGTQVTVSS” reads “low polyreactivity”; that for “QVQIEDSGGGLVQAGGSLRLSCAASGSTLRGYAMGWYRHAPGKERELVAAISKNGGSTYYADSVKGRFTISRDKAKYTVYLQMNSLKPEDTAVYYCAAVGYYTKRRFGYWGQGTQVTVSS”, “high polyreactivity”; that for “QVQLVESGGGLVQAGGSLRLSCAASGNTIFPSTMGWYRQAPGKEREFVAAMTWSGVSTYYADSVKGRFTISRDNAKNTVYLQMNSLKPEDTAVYYCAARGPVYVSYPRQYGYWGQGTQVTVSS”, “high polyreactivity”.
The result for “QVQLVESGGGLVQAGGSLRLSCAASGFIFGLYDMGWYRQAPGKERELVAAISWSGGSTYYADSVKGRFTISRDNAKNTVYLQMNSLKPQDTAFYYCAAKHVGWYVQEEDYWGQGSQVTVSS” reads “low polyreactivity”; that for “QVQLGESGGGLVQAGGSLRLSCAASGSIFAFNTMGWYRQAPGKERELVAAITWGGGSTYYADSVKGRFTISRDNAKNTVYLQMNSLKPEDTAVYYCAARRSGRTRYYWGQGTQVTVSS”, “high polyreactivity”.
As to “QVHLVESGGGLVQAGGSLRLSCAASGYTFRYYAMGWYRQAPGKERELVAAINWSGGSTYYADSVKGRFTISRDNAKNTVYLQMNSLTPEDTAVYYCAADPDGDLDIDYDYWGQGTQVTVSS”, the “polyreactivity (PSR sort gate)” value was “low polyreactivity”.
For “QVQLVESGGGLVQAGGSLRLSCAASGFIFQRNAMGWYRQAPGKERELVAAIRSSGGTTYYADSVKGRFTISRDNAKNTVYLQMNSLKPEDTAVYYCAAVTTSKFNYWGQGSQVTVSS”, the “polyreactivity (PSR sort gate)” value is listed as “low polyreactivity”.
The entry for “QVQLVESGGGLVQAGGSLRLSCAASGRIITKYTMGWYRQAPGKERELVAAISRSDRTNYADSVKGRFTISRDNAKNTVYLQMNSLKPEDTAVYYCAAQFTVLWYEYYYWGQGTQVTVSS” is “high polyreactivity”; for “QVQLVESGGGLVQAGGSLRLSCAASGIIFSTYAMGWYRQAPGKERELDATITSSGSNTYYADSVKGRFTISRDNAKNTVYLQMNSLKPEDTAVYYCNAVASHYDFGYWGQGTQVTVSS” it is “high polyreactivity”; for “QVHLVESGGGLVQAGGSLRLSSAASGSIFIIYAMGWYRQAPGKERELVADITCRGGDTYYADSVKGRFTISRDNAKNTVYLQMNSLKPEDTAVYYCAARAGYPYTVQDVGVSAYDYWGQGTQVTVSS” it is “low polyreactivity”.
The result for “QDQLVESGGGLDQAGGSLRLSCAASGRIFYPYTMGWYRQAPGKERELVAANTRSAASTHYADSVKGRFTISRDNAKNTVYLQMNSLKPEDTAVYYCAADDRGSSYGHFTVEYGYWGQGTQVTVSS” reads “low polyreactivity”.
As to “QVQLVESGGGLVQAGGSLRLSCAASGSIFDYNAMGWYRQAPGKERELVAAISVNGGNTYYADSVKGRFTISRDNAKNTVYLQMNSLKPEDTAVYYCAADSYGGSKYDYWGQGTQVTVSS”, the “polyreactivity (PSR sort gate)” value is listed as “low polyreactivity”.
Consider “QVQLVDSGGGLVQAGASLRLRCAASVLTLYANAMGRYRQAPGKERELVAGIDNGGSTSYADSVKGRFTISRDNAKKTVYLQKNSLKPEDTAVYYCAAQRDSVGGRHYAQRWIYLMYYWGQGTQVTVSS”, for which the “polyreactivity (PSR sort gate)” value is “low polyreactivity”.
The entry for “QVQLVESVGGLVQAGGSLRLTCVASGRIFLTYAMGWYRQAPGKERELVAAISYSGASTYYADSVKGRFTISRDNAKNTVYLQMNSLKPEDTAVYYCATERVGTPRMNYWGQGTQVTVSS” is “high polyreactivity”; for “QVQLVESGGGIVQAGGSLRLSCAASGSIFTRYAMGWYRPAPGKERELVAAITKSGSRTYYADSVKGRFTISRDNAKNTVYLQLNCLIAEDTAVFYCATLQGDSSSQYDYWGQGTQVTVSS” it is “high polyreactivity”; for “QVQLVESGGGIVQAGGSLRLSCAASGSTLRWNAMGWYRQAPGKERELVAAIRWSTGSTYYADSVKGRFTISRDNAKNTVYLQMNSLKPEDTAVYYCAARQGRARTPNDHNYWGQGTKVTVSS” it is “high polyreactivity”.
Regarding “QVQLVESGGGLVQAGGRLRLSCAASGRTFYYYPMGWYRQAPGKERELVAAISWSGGSTYYADSVKGRCTISRDNAKNTVYLQLNSLKPDDTAVNYCNAVGSKGYRMDYWGQGTQVTVSA”, the “polyreactivity (PSR sort gate)” value is given as “high polyreactivity”.
The result for “QLQLVESGRGLVQAGGSLRLSCAASGRTFVYYPMGSYRQAPGKERELVASISSVGTTKYADSVKGRFTISRDNAKNTVYLQMNCLKPEDTAVYYCAAVPLSRNIFDSWGQGTQVSVSS” reads “low polyreactivity”; that for “QVQLVESGGGLVQAGGSLRLSCAASGIIFTYAMGWYRQAPGKERELVAAIDWRGGRTYYADSVKGRFTISRDNAKNTVYLQMNSLKPEDTAVYYCAVGVLYAGYFYRYRYYYWGQGTQVTVSS”, “high polyreactivity”.
The entry for “QVQLVESGGGLVQAGGSLRLSCAASGSIFYYAMGWYRQAPWKERELVADISTGGSTHYADSVKGRFTISRDNAKNTVYLQMNSLKPEDTAVYYCAKEAWRYRLNFRYNYWGQGTQVTVSS” is “low polyreactivity”.
“QVQLEESGGGLVQAGGSLRLSCAASGFTFFSYYAMGWYIQAPGKERELVATITSGASTNYADSVKGRFTISRDNAKNTVYLQMNSLKPEDTAVYYCAAAYFYWRVDKYYYWGQGTQVTVSS”: the “polyreactivity (PSR sort gate)” value is “low polyreactivity”.
Take “QVQHVESGGGLVQAGGSLRLSCAASGFILDTYGMGWYRQAPGKERELVAAISQSDVSTYYADSVKGRFTISRDNAKNTVDLQMNSLKPEDTAVYDCAADRGGLRWFWQVLYDYWGQGTQVTVSS”: the “polyreactivity (PSR sort gate)” value was “low polyreactivity”.
The result for “QVQLVESGGGLVQAGGSLRLSCAASGSTFVWYVMGWYRQAPGNERELVAAISRSGGTTFYADSVKGRFTISRANAKNTVYLQMNSLKPEDTAVYYCAAEDVAYRPGYDYWGQGTQVTVSS” reads “high polyreactivity”; that for “QVQLVESGGGLVQAGGSLRLSCAASGSIFHTYAMGWYIQAPGKERELVAAITVSGGDTYYADSVKGRFTISRDNEKNNVYLQMNSLKPEDTAVYYCAVDTTTSYTVAYDYWGQGTQVSVSS”, “low polyreactivity”; that for “QVQLVESGGGLVQAGGSLRLSCAASGSTFGTYAMGWYRQAPGKERELVATISIGGITYYADSVKGRFTISRDNAKYTVYLQMNSLKPEDTAVYYCAKDVTDPTSRSDPSGDDYWGQGTQVTVSS”, “low polyreactivity”.
The entry for “QVQLVESGGGLVQAGGSLRLSCAASGYTFSYYAMGWYRQAPGKERELVAAINYSGGRTYYADSVKGRFTISRDNAKHTVYLQMNSLKPEDSAVDYCAARGGFGMDYWGQGTQVTVSS” is “high polyreactivity”; for “QVKLVESCGGLVQAGGSLRLSCAASGFIFRNYAMGWYRQARGKERELVAAIDYSVGSTNYADSVKWRFTISRDNAKNTVYLQMNSLKPEDTAVYYCNAEYTWHRGYDYFGQGTQVTVSS” it is “low polyreactivity”.
In the case of “QVQLVESGGGLVQAGGSLRLSCAASGITFPVYVMGWYRQAPGKERELVAAISNGGDTYYADSVKGRFTISRDNAKNTVYLQMNSLKPVDTAVYYCAAYYSFPNDYGYEYDYWGQGTQVTVSS”, the “polyreactivity (PSR sort gate)” value was “low polyreactivity”.
The entry for “QVQLVESGGGLVQAGGSLRLSCAASGGTFNHYAMGWYRQAPGKERELVASITNGASTYYADSVKGRFTISRDNAKNTVYLQMNSLKPEDTAVYYCAKRGRVGKYRYEYWGQGTQVTVSS” is “low polyreactivity”.
The entry for “QVQLVESGGGLVQAGGSLRLSCAASGRIFGPYVMGWYRQAPGKERELVAAINRRGGSTYYADSVKGRFTISRDNAKNTVYLQMNSLKPEDTAVYYCAAKKATVVYRMEYWGQGTQVTVSS” is “high polyreactivity”.
Consider “QVQLVESGGGLVQAGGSLRLSCAASGSIAYNAMGCYRQAPGKERELVASIRASGGRTYYADSVKGRFTISRDNAKNTVYLQMNSLKPEDTAVYYCAAYAYNAIEYGYWGQGTQVTVSS”, for which the “polyreactivity (PSR sort gate)” value is listed as “low polyreactivity”.
The entry for “QDQLVESGGGLVQAGGSLRLICAASGRSLIHYAMGWYRQAPGKERELVASMTYSGGSTYYADSVKGRFTISRDNAKMTVYLQMNSLKPEDTAVYYCAATLGNRWFHYNYWGQGTQVTVSS” is “low polyreactivity”.
The entry for “QVQLVESGGGLVQAGGSLRLSCAASGRIFYYYAMGWYRQAPGKEREFVAAISGSGGTTYYADSVKGRFTISLDNAKNTVYLQMNSLKPEDTAVYYCNAKAVRGRYVWFDYWGQGTQVTVSS” is “high polyreactivity”.
For the sequence “QVQLVESGGGLVQAGGSLRLSCAASGRTFSEYAMGWYRQAPGKERELVAAITENGGSTYYADSVKGRFTISRDNAKNTVYLQMNSLKPEDTAVYYCAAETWADWYSEFYWGQGTQVTVSS”, the “polyreactivity (PSR sort gate)” value was “high polyreactivity”.
The result for “QVQLVESGGGLVQAGGSLRLSCAASGSIFYWYAMGWYRQAPGKERELVATITRGGSTNYADSVKGRFTISRDNAKNTVYLQMNSLKPEDTAVYYCAAQRVGHKRSTKLDYWGQGTQVTVSS” reads “low polyreactivity”.
As to “QVQLVESGGGLVQAGGSLRLSCAASGFIFYQYAMGWYRQAPGKERELVAVINKSGGRTYYADSVKGRFTISRDNAKNTVYLQMNSLKPEDPAVYYCNAVSKLAVNLDYWGQGTQVTVSS”, the “polyreactivity (PSR sort gate)” value was “high polyreactivity”.
As to “QVQLVESAGGLVQAGGSHRLSCAASVLIFRYYAMGWFRQAPGKEWELFAAISNSGGGTYYADSVKGRFTISRDNAKNTVYLLMNSLIPVDTAVYYCAARHAFCFRFVSWGLGTQVTVSS”, the “polyreactivity (PSR sort gate)” value is reported as “high polyreactivity”.
